Test results taken from patent US20030099644A1.

Target: CD40 on murine bone cells (MLO-Y4 osteocyte cell line, primary osteoblasts, MC3T3, OCT-1 and 2T3 osteoblast cell lines) (mouse) (UniProt P27512)
Assay: cell-based or functional assay

Chain of UniProt P27512 (P27512 20-289): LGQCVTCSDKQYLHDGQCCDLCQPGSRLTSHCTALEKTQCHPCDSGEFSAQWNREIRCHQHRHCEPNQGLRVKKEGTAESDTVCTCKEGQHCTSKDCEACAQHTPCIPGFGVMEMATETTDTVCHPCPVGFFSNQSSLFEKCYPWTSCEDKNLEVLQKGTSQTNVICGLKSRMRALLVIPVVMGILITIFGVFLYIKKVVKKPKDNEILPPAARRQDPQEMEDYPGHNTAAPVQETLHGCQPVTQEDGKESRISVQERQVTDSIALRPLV

percent positive cells, Annexin V (MLO-Y4 cells, CD40L alone) (percent positive cells): 11.5
percent positive cells, Annexin V (MLO-Y4 cells, Dex + CD40L) (percent positive cells): 13.7
percent positive cells, Annexin V (MLO-Y4 cells, TNF + CD40L) (percent positive cells): 13.9
percent positive cells, GFP (MLO-Y4 cells, CD40L alone) (percent positive cells): 8.7
percent positive cells, GFP (MLO-Y4 cells, Dex + CD40L) (percent positive cells): 9.9
percent positive cells, GFP (MLO-Y4 cells, Etoposide + CD40L) (percent positive cells): 8.4
percent positive cells, GFP (MLO-Y4 cells, TNF + CD40L) (percent positive cells): 15
percent positive cells, Trypan Blue (MLO-Y4 cells, CD40L alone) (percent positive cells): 7.2
percent positive cells, Trypan Blue (MLO-Y4 cells, Dex + CD40L) (percent positive cells): 7.8
percent positive cells, Trypan Blue (MLO-Y4 cells, Etoposide + CD40L) (percent positive cells): 7.9
percent positive cells, Trypan Blue (MLO-Y4 cells, TNF + CD40L) (percent positive cells): 12.9
Substance: Soluble, trimeric CD40L (ligand)
